Tests used:
Assay in all cases: SPR
[1] = target: human IFN-ω (human, UniProt P05000 24-195)
[2] = target: T1, human IFN-α14 (human, UniProt P01570 24-189)
T1 chain: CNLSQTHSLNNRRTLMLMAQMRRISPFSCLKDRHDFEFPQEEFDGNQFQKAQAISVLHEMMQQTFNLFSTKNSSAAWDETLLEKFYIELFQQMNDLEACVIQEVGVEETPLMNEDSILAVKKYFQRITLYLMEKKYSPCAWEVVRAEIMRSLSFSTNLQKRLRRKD

[3] = target: T2, human IFN-α4 (human, UniProt P05014 24-189)
T2 chain: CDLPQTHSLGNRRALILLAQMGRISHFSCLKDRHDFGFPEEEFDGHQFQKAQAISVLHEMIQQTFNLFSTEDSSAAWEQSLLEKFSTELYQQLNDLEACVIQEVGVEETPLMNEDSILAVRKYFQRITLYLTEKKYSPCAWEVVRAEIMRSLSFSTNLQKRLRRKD

human IFN-ω, sequence (P05000 24-195): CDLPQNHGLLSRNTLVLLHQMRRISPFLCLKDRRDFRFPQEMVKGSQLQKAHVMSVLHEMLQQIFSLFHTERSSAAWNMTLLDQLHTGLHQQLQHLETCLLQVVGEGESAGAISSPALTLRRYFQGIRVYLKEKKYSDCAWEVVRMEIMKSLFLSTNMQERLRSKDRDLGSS

Kd [1]: 0.125 pM
Kd [2]: 0.0328 pM
Kd [3]: 0.0375 pM
B1: 26B9 (antibody, V domains shown)
VH: QILLQESGPGLVKPTETLSLTCSVSGDSISDSSHYWAWIRQPPGKGPEWIGSVYFSSMTHYNPSLKSRVSISVDKPKNQFSLKVTSVTVADTATYYCARQALARVGAMNWFDPWGQGSLVTVSS
VL: DIIMTQSPDSLPVSLGEGVTINCKSSQSVFFTSSNKSCLAWYQQKPGKSPKLLIYWASTRQSGVPDRFRGSGSGTDFSLTITSLQAEDVAVYFCQQCQTSPPTFGGGTRLEIKR

Source: US20190071499A1 (published 2019)
